From the supplement of paper PMC9233669
This sample holds only a part of the variants without activity.

Key:
[1] = tested on: biotinyl-Phe-oxazolone; assay: self-aminoacylation, catalytic enhancement (BFO) (fold over background); higher = more active; k-Seq, kA / k0A0; sequences stand for … in GGGAAUGGAUCCACAUCUACGAAUUC…UUCACUGCAGACUUGACGAAGCUG
Procedure, shortened: (§1)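 Mutagenized RNA pools with a 21-nt variable region (0.43 μM) reacted with each biotinyl-aminoacyl-oxazolone at 2–1250 μM. Reactions ran in 50 μL HEPES/NaCl/KCl/MgCl2/CaCl2 buffer with 5% acetonitrile, pH 6.9–7.0, for 90 minutes at room temperature. Streptavidin-captured RNA was quantified by triplicate qPCR and Illumina sequencing, and per-sequence fraction reacted was fit to a pseudo-first-order model with 1000 bootstraps. Catalytic enhancement is median kA divided by the uncatalyzed rate, the low-activity peak of a bimodal Gaussian fit.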

[2] = tested on: biotinyl-Ile-oxazolone; assay: self-aminoacylation, catalytic enhancement (BIO) (fold over background); higher = more active; k-Seq, kA / k0A0; sequences stand for … in GGGAAUGGAUCCACAUCUACGAAUUC…UUCACUGCAGACUUGACGAAGCUG
Procedure, shortened: as §1

[3] = tested on: biotinyl-Met-oxazolone; assay: self-aminoacylation, catalytic enhancement (BMO) (fold over background); higher = more active; k-Seq, kA / k0A0; sequences stand for … in GGGAAUGGAUCCACAUCUACGAAUUC…UUCACUGCAGACUUGACGAAGCUG
Procedure, shortened: as §1

[4] = tested on: biotinyl-Val-oxazolone; assay: self-aminoacylation, catalytic enhancement (BVO) (fold over background); higher = more active; k-Seq, kA / k0A0; sequences stand for … in GGGAAUGGAUCCACAUCUACGAAUUC…UUCACUGCAGACUUGACGAAGCUG
Procedure, shortened: as §1

[5] = tested on: biotinyl-Leu-oxazolone; assay: self-aminoacylation, catalytic enhancement (BLO) (fold over background); higher = more active; k-Seq, kA / k0A0; sequences stand for … in GGGAAUGGAUCCACAUCUACGAAUUC…UUCACUGCAGACUUGACGAAGCUG
Procedure, shortened: as §1

[6] = tested on: biotinyl-Trp-oxazolone; assay: self-aminoacylation, catalytic enhancement (BWO) (fold over background); higher = more active; k-Seq, kA / k0A0; sequences stand for … in GGGAAUGGAUCCACAUCUACGAAUUC…UUCACUGCAGACUUGACGAAGCUG
Procedure, shortened: as §1

Sequence | self-aminoacylation [1] | self-aminoacylation [2] | self-aminoacylation [3] | self-aminoacylation [4] | self-aminoacylation [5] | self-aminoacylation [6]
GUUACCCUGGUCCUCGAGUGA [Fam2.1 aminoacylation ribozyme variant] | 42.7 | 3.36 | 6.3 | 4.16 | 5.97 | 6.45
GUUACCCUGUUCAUCGAGUGA [Fam2.1 aminoacylation ribozyme variant] | 37.5 | 3.34 | 7 | 3.5 | 7.51 | 8.4
GUUACCGUGGUCAUCGAGUGA [Fam2.1 aminoacylation ribozyme variant] | 55.3 | 5.33 | 9.15 | 5.58 | 10.6 | 10.1
GUUACCUUGGUCAUCGAGUGA [Fam2.1 aminoacylation ribozyme variant] | 21.1 | 4.39 | 7.16 | 4.21 | 7.14 | 9.03
GUUCACAUAGGUCAUCGGGUG [Fam2.2 aminoacylation ribozyme variant] | 51.1 | 4.89 | 6.87 | 4.64 | 8.18 | 8.49
GUUCACCUAGAUCAUCGGGUG [Fam2.2 aminoacylation ribozyme variant] | 6.53 | 2.6 | 2.87 | 2.75 | 2.92 | 3.29
GUUCACCUAGGGCAUCGGGUG [Fam2.2 aminoacylation ribozyme variant] | 23.4 | 3.29 | 3.44 | 3.42 | 3.57 | 4.28
GUUCACCUAGGUCAUCGGGGG [Fam2.2 aminoacylation ribozyme variant] | 6.24 | 2.93 | 4.28 | 3.43 | 5.9 | 4.61
GUUCACCUAGGUCAUCUGGUG [Fam2.2 aminoacylation ribozyme variant] | 8.36 | 1.71 | 2.62 | 1.71 | 2.56 | 2.12
GUUCACCUAGGUCGUCGGGUG [Fam2.2 aminoacylation ribozyme variant] | 11 | 1.67 | 2.44 | 2.1 | 2.04 | 2.08
GUUCACGUAGGUCAUCGGGUG [Fam2.2 aminoacylation ribozyme variant] | 30.3 | 3.06 | 4.57 | 4.2 | 4.45 | 5.39
GUUCACUUAGGUCAUCGGGUG [Fam2.2 aminoacylation ribozyme variant] | 27.9 | 3.48 | 4.97 | 3.12 | 6.01 | 5.21
GUUCUCCUAGGUCAUCGGGUG [Fam2.2 aminoacylation ribozyme variant] | 55.1 | 6.21 | 9.55 | 6.51 | 13.7 | 9.42
UAGAUUGCUAAUAGUCGCAAG [Fam3.1 aminoacylation ribozyme variant] | 1.77 | 1.19 | 1.19 | 1.19 | 1.16 | 1.13
UAGUGUGCUAAUAGUCGCAAG [Fam3.1 aminoacylation ribozyme variant] | 2.94 | 1.83 | 1.88 | 1.76 | 1.21 | 2.19
UAGUUCGCUAAUAGUCGCAAG [Fam3.1 aminoacylation ribozyme variant] | 6.84 | 1.81 | 1.55 | 1.86 | 1.81 | 1.88
UAGUUUGCUAAUAGUCGAAAG [Fam3.1 aminoacylation ribozyme variant] | 6.07 | 1.33 | 1.09 | 1.15 | 1 | 3.49
UAGUUUGCUAAUAGUCGCAAC [Fam3.1 aminoacylation ribozyme variant] | 1.43 | 1.25 | 1.18 | 1.31 | 1.06 | 1.34
UAGUUUGCUAAUAGUCGCAAU [Fam3.1 aminoacylation ribozyme variant] | 3.04 | 1.52 | 1.38 | 1.61 | 1.28 | 1.88
UAGUUUGCUAAUGGUCGCAAG [Fam3.1 aminoacylation ribozyme variant] | 1.19 | 1.11 | 1.17 | 1.1 | 0.81 | 1.22
UAGUUUGCUAAUUGUCGCAAG [Fam3.1 aminoacylation ribozyme variant] | 1.62 | 1.25 | 1.29 | 1.17 | 1.39 | 1.51
UAUCACCUAGGUCAUCGGGUG [Fam2.2 aminoacylation ribozyme variant] | 15.1 | 3.72 | 4.75 | 3.88 | 4.88 | 5.87
UCACACUUAAAGCAAUCGGUC [Fam1B.1 aminoacylation ribozyme variant] | 0.642 | 0.86 | 0.737 | 0.844 | 0.761 | 0.575
UCACACUUCAAGCAAUAGGUC [Fam1B.1 aminoacylation ribozyme variant] | 0.918 | 0.671 | 0.434 | 0.668 | 0.495 | 0.559
UCACACUUCAAGCAAUCGGUC [Fam1B.1 aminoacylation ribozyme variant] | 49.8 | 0.996 | 0.998 | 1.2 | 1.43 | 22
UCACACUUCAAGCAAUCGGUU [Fam1B.1 aminoacylation ribozyme variant] | 8.21 | 1.3 | 1.48 | 1.58 | 1.6 | 6.74

Sequence | self-aminoacylation [1] | self-aminoacylation [2] | self-aminoacylation [3] | self-aminoacylation [4] | self-aminoacylation [5] | self-aminoacylation [6]
UUACUUCAAACAAUAGGUCUG [Fam1A.1 aminoacylation ribozyme variant] | 1.69 | 1.2 | 1.26 | 1.25 | 1.08 | 1.07
UUACUUCAAACAAUCGUUCUG [Fam1A.1 aminoacylation ribozyme variant] | 2.05 | 0.996 | 1 | 0.975 | 0.983 | 1.05
UUACUUCAAACUAUCGGUCUG [Fam1A.1 aminoacylation ribozyme variant] | 1.25 | 1.25 | 0.916 | 1.08 | 1.04 | 1.26
UUCCACCUAGGUCAUCGGGUG [Fam2.2 aminoacylation ribozyme variant] | 48.6 | 5.71 | 7.25 | 5.42 | 7.41 | 7.67
UUGACCCUGGUCAUCGAGUGA [Fam2.1 aminoacylation ribozyme variant] | 129 | 7.37 | 19.9 | 7.21 | 19.1 | 18.7
UUUACACUGGUCAUCGAGUGA [Fam2.1 aminoacylation ribozyme variant] | 23.9 | 3.29 | 5.97 | 3 | 5.04 | 7.26
UUUACCAUGGUCAUCGAGUGA [Fam2.1 aminoacylation ribozyme variant] | 20.9 | 4.43 | 7.28 | 4.57 | 7.39 | 9.91
UUUACCCUCGUCAUCGAGUGA [Fam2.1 aminoacylation ribozyme variant] | 10.2 | 2.46 | 3.25 | 2.35 | 2.68 | 4.02
UUUACCCUGGACAUCGAGUGA [Fam2.1 aminoacylation ribozyme variant] | 14.9 | 2.68 | 4.86 | 3.1 | 4.69 | 5.78
UUUACCCUGGCCAUCGAGUGA [Fam2.1 aminoacylation ribozyme variant] | 16.7 | 2.06 | 3.22 | 2.52 | 3.97 | 5.04
UUUACCCUGGUCAUCGAGUGC [Fam2.1 aminoacylation ribozyme variant] | 16.5 | 2.52 | 6.81 | 2.99 | 6.26 | 5.5
UUUACCCUGGUCAUCGAUUGA [Fam2.1 aminoacylation ribozyme variant] | 0.947 | 1.06 | 0.837 | 1.13 | 1.08 | 1.09
UUUACCCUGGUCAUGGAGUGA [Fam2.1 aminoacylation ribozyme variant] | 9.54 | 2.58 | 3.46 | 2.44 | 3.04 | 3.99
UUUACCCUGGUCCUCGAGUGA [Fam2.1 aminoacylation ribozyme variant] | 17.8 | 1.96 | 4.26 | 2.58 | 3.67 | 4.06
UUUACCUUGGUCAUCGAGUGA [Fam2.1 aminoacylation ribozyme variant] | 18.6 | 3.93 | 5.9 | 4.04 | 5.86 | 8.55
UUUCACCAAGGUCAUCGGGUG [Fam2.2 aminoacylation ribozyme variant] | 58.3 | 5.54 | 9.41 | 6.02 | 10.3 | 10.2
UUUCACCCAGGUCAUCGGGUG [Fam2.2 aminoacylation ribozyme variant] | 35.1 | 3.32 | 4.86 | 4.69 | 4.54 | 5.64
UUUCACCUAGGUCAACGGGUG [Fam2.2 aminoacylation ribozyme variant] | 15.6 | 2.27 | 3 | 2.25 | 2.65 | 3.09
UUUCACCUAGGUCAUCAGGUG [Fam2.2 aminoacylation ribozyme variant] | 1.36 | 1.58 | 1.79 | 1.7 | 1.52 | 1.52
UUUCACCUAGGUCAUCCGGUG [Fam2.2 aminoacylation ribozyme variant] | 35.9 | 4.39 | 4.88 | 4.32 | 5.87 | 6.5
UUUCACCUAGGUCAUCGGGGG [Fam2.2 aminoacylation ribozyme variant] | 21.3 | 3.52 | 2.73 | 3.25 | 4.45 | 3.77
UUUCACCUAGGUCAUCGGGUG [Fam2.2 aminoacylation ribozyme variant] | 103 | 9.15 | 15.9 | 8.76 | 19.5 | 13.4
UUUCACCUAGGUCGUCGGGUG [Fam2.2 aminoacylation ribozyme variant] | 11.2 | 1.9 | 2.75 | 2.27 | 2.44 | 3
UUUCACCUCGGUCAUCGGGUG [Fam2.2 aminoacylation ribozyme variant] | 38.3 | 3.61 | 3.79 | 4.79 | 5.28 | 6.19
UUUCACCUUGGUCAUCGGGUG [Fam2.2 aminoacylation ribozyme variant] | 45.4 | 4.31 | 6.53 | 5.49 | 5.87 | 6.96
